{"source": "patent US20230391858A1", "about": "(ANNEXON, published 2023)", "binders": {"B1": {"name": "FabA, anti-C1q antibody Fab fragment comprising heavy chain Fab fragment of SEQ ID NO: 39 and light chain Fab fragment of SEQ ID NO: 40 (Fab)", "heavy": "QVQLVQSGAELKKPGASVKVSCKSSGYHFTSYWMHWVKQAPGQGLEWIGVIHPNSGSINYNEKFESRVTITVDKSTSTAYMELSSLRSEDTAVYYCAGERDSTEVLPMDYWGQGTTVTVSSASTKGPSVFPLAPSSKSTSGGTAALGCLVKDYFPEPVTVSWNSGALTSGVHTFPAVLQSSGLYSLSSVVTVPSSSLGTQTYICNVNHKPSNTKVDKKVEPKSCDKTHT", "light": "DVQITQSPSSLSASLGERATINCRASKSINKYLAWYQQKPGKAPKLLIYSGSTLQSGIPARFSGSGSGTDFTLTISSLEPEDFAMYYCQQHNEYPLTFGQGTKLEIKRTVAAPSVFIFPPSDEQLKSGTASVVCLLNNFYPREAKVQWKVDNALQSGNSQESVTEQDSKDSTYSLSSTLTLSKADYEKHKVYACEVTHQGLSSPVTKSFNRGEC", "notes": "The heavy chain is truncated after the first heavy chain constant domain of IgG1; also called anti-C1q monovalent Fab; anti-C1q Fab"}}, "key": {"[1]": {"target": "T1, human complement factor C1q (chains A, B and C) (human, UniProt P02745 23-245; P02746 28-253; P02747 29-245)", "T1 sequence (P02745 23-245 limits assumed, chain 1 of 3)": "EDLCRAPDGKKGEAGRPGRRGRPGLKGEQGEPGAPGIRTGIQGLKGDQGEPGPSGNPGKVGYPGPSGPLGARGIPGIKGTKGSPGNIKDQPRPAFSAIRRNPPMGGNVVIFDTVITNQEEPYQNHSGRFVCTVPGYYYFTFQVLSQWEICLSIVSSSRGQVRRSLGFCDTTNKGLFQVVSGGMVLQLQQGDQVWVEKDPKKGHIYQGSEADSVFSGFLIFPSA", "T1 sequence (P02746 28-253 limits assumed, chain 2 of 3)": "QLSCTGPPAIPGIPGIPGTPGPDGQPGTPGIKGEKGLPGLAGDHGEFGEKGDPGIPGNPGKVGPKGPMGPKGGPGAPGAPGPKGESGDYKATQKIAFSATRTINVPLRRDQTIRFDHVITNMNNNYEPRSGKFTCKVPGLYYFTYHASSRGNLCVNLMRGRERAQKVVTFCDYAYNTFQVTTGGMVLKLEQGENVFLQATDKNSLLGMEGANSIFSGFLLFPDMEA", "T1 sequence (P02747 29-245 limits assumed, chain 3 of 3)": "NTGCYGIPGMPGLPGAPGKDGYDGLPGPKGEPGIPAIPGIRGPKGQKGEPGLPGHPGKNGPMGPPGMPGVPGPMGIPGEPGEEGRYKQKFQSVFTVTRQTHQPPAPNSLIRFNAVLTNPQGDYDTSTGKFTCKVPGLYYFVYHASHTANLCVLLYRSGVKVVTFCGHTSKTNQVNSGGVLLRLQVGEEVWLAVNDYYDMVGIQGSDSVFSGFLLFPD", "assay": "cell-based or functional assay"}, "[2]": {"target": "T1, human complement factor C1q (chains A, …)", "assay": "method not stated; affinity stated in the description"}}}
{"binder": "B1", "values": [{"measurement": "IC50 for inhibition of hemolysis of CAD-sensitized human RBCs in normal human serum", "setting": "[1]", "value": "~10", "unit": "nM"}, {"measurement": "IC50 of inhibition of C4 and C3d deposition on human RBCs (flow cytometry)", "setting": "[1]", "value": "~10", "unit": "nM"}, {"measurement": "Kd", "setting": "[2]", "value": 0.01, "unit": "nM"}]}
